Results published in patent US20250361268A1, “NOVEL ANTI-INFLAMMATORY PEPTIDE AND USE THEREOF” (NOVACELL TECHNOLOGY INC., priority 2022, published 2025).

T1: formyl peptide receptor 2 (FPR2) (UniProt P25090 1-351, limits assumed)
T1 sequence (looked up): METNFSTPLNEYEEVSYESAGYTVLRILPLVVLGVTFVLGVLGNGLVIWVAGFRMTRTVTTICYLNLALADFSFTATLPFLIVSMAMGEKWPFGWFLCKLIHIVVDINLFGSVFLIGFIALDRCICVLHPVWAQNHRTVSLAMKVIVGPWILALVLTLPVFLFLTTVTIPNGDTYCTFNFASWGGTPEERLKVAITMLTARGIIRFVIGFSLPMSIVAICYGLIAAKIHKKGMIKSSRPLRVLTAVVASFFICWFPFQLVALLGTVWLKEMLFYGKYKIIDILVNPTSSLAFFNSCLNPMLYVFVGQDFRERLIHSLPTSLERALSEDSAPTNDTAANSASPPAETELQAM

T2: FPR1 (UniProt P21462 1-350, limits assumed)
T2 sequence (looked up): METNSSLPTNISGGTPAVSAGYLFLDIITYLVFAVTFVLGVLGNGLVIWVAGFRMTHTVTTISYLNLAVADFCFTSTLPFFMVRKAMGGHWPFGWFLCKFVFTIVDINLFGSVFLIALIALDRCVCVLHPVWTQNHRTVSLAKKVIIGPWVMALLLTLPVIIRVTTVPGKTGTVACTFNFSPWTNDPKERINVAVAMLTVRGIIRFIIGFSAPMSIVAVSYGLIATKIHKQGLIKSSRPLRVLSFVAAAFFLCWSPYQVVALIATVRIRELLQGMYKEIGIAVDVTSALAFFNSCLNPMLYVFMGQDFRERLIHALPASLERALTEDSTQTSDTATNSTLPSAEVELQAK


Tests used:
[1] = molecular target: T1, formyl peptide receptor 2 (FPR2); test: cell-based or functional assay
FPR1 = molecular target: T2, FPR1; test: cell-based or functional assay

Binder	EC50 for [Ca2+] [1]	EC50 for [Ca2+] (FPR1)
MRYKVM (HELM PEPTIDE1{M.R.Y.K.V.[dM].[am]}$$$$V2.0; N-terminus assumed; SMILES CSCC[C@H](N)C(=O)N[C@@H](CCCNC(=N)N)C(=O)N[C@@H](Cc1ccc(O)cc1)C(=O)N[C@@H](CCCCN)C(=O)N[C@H](C(=O)N[C@H](CCSC)C(N)=O)C(C)C) [peptide of SEQ ID NO 13]	< 0.01 µM	> 10 µM
PKYKVM (HELM PEPTIDE1{[CCCC(=O)[*:2]].P.K.Y.K.V.[dM].[am]}$$$$V2.0; SMILES CCCC(=O)N1CCC[C@H]1C(=O)N[C@@H](CCCCN)C(=O)N[C@@H](Cc1ccc(O)cc1)C(=O)N[C@@H](CCCCN)C(=O)N[C@H](C(=O)N[C@H](CCSC)C(N)=O)C(C)C) [peptide of SEQ ID NO 140]	< 0.01 µM	> 10 µM
RWRYYYM (HELM PEPTIDE1{R.W.R.Y.Y.Y.[dM].[am]}$$$$V2.0; N-terminus assumed; SMILES CSCC[C@@H](NC(=O)[C@H](Cc1ccc(O)cc1)NC(=O)[C@H](Cc1ccc(O)cc1)NC(=O)[C@H](Cc1ccc(O)cc1)NC(=O)[C@H](CCCNC(=N)N)NC(=O)[C@H](Cc1c[nH]c2ccccc12)NC(=O)[C@@H](N)CCCNC(=N)N)C(N)=O) [peptide of SEQ ID NO 123]	< 0.01 µM	> 10 µM
RMRYYYM (HELM PEPTIDE1{[ac].R.M.R.Y.Y.Y.[dM].[am]}$$$$V2.0; SMILES CSCC[C@H](NC(=O)[C@H](CCCNC(=N)N)NC(C)=O)C(=O)N[C@@H](CCCNC(=N)N)C(=O)N[C@@H](Cc1ccc(O)cc1)C(=O)N[C@@H](Cc1ccc(O)cc1)C(=O)N[C@@H](Cc1ccc(O)cc1)C(=O)N[C@H](CCSC)C(N)=O) [peptide of SEQ ID NO 125]	< 0.01 µM	> 10 µM
IKYKVM (HELM PEPTIDE1{[CCCC(=O)[*:2]].I.K.Y.K.V.[dM].[am]}$$$$V2.0; SMILES CCCC(=O)N[C@H](C(=O)N[C@@H](CCCCN)C(=O)N[C@@H](Cc1ccc(O)cc1)C(=O)N[C@@H](CCCCN)C(=O)N[C@H](C(=O)N[C@H](CCSC)C(N)=O)C(C)C)[C@@H](C)CC) [peptide of SEQ ID NO 136]	< 0.01 µM	> 10 µM
HMRYWYM (HELM PEPTIDE1{[ac].H.M.R.Y.W.Y.[dM].[am]}$$$$V2.0; SMILES CSCC[C@H](NC(=O)[C@H](Cc1c[nH]cn1)NC(C)=O)C(=O)N[C@@H](CCCNC(=N)N)C(=O)N[C@@H](Cc1ccc(O)cc1)C(=O)N[C@@H](Cc1c[nH]c2ccccc12)C(=O)N[C@@H](Cc1ccc(O)cc1)C(=O)N[C@H](CCSC)C(N)=O) [peptide of SEQ ID NO 92]	< 0.01 µM	> 10 µM
KMKYKVM (HELM PEPTIDE1{[CCCC(=O)[*:2]].K.M.K.Y.K.V.[dM].[am]}$$$$V2.0; SMILES CCCC(=O)N[C@@H](CCCCN)C(=O)N[C@@H](CCSC)C(=O)N[C@@H](CCCCN)C(=O)N[C@@H](Cc1ccc(O)cc1)C(=O)N[C@@H](CCCCN)C(=O)N[C@H](C(=O)N[C@H](CCSC)C(N)=O)C(C)C) [peptide of SEQ ID NO 11]	< 0.01 µM	> 10 µM
PKYKVM (HELM PEPTIDE1{[ac].P.K.Y.K.V.[dM].[am]}$$$$V2.0; SMILES CSCC[C@@H](NC(=O)[C@@H](NC(=O)[C@H](CCCCN)NC(=O)[C@H](Cc1ccc(O)cc1)NC(=O)[C@H](CCCCN)NC(=O)[C@@H]1CCCN1C(C)=O)C(C)C)C(N)=O) [peptide of SEQ ID NO 139]	< 0.01 µM	> 10 µM
HMKYYYM (HELM PEPTIDE1{[CCCC(=O)[*:2]].H.M.K.Y.Y.Y.[dM].[am]}$$$$V2.0; SMILES CCCC(=O)N[C@@H](Cc1c[nH]cn1)C(=O)N[C@@H](CCSC)C(=O)N[C@@H](CCCCN)C(=O)N[C@@H](Cc1ccc(O)cc1)C(=O)N[C@@H](Cc1ccc(O)cc1)C(=O)N[C@@H](Cc1ccc(O)cc1)C(=O)N[C@H](CCSC)C(N)=O) [peptide of SEQ ID NO 127]	< 0.01 µM	> 10 µM

Other lines, results leading:

EC50 for [Ca2+] [1]	EC50 for [Ca2+] (FPR1)	Binder
< 0.01 µM	> 10 µM	PKYKVM (HELM PEPTIDE1{P.K.Y.K.V.[dM].[am]}$$$$V2.0; N-terminus assumed; SMILES CSCC[C@@H](NC(=O)[C@@H](NC(=O)[C@H](CCCCN)NC(=O)[C@H](Cc1ccc(O)cc1)NC(=O)[C@H](CCCCN)NC(=O)[C@@H]1CCCN1)C(C)C)C(N)=O) [peptide of SEQ ID NO 138]
< 0.01 µM	> 10 µM	IKYKVM (HELM PEPTIDE1{I.K.Y.K.V.[dM].[am]}$$$$V2.0; N-terminus assumed; SMILES CC[C@H](C)[C@H](N)C(=O)N[C@@H](CCCCN)C(=O)N[C@@H](Cc1ccc(O)cc1)C(=O)N[C@@H](CCCCN)C(=O)N[C@H](C(=O)N[C@H](CCSC)C(N)=O)C(C)C) [peptide of SEQ ID NO 134]
< 0.01 µM	> 10 µM	PKYKVM (HELM PEPTIDE1{[CCCCCCCC(=O)[*:2]].P.K.Y.K.V.[dM].[am]}$$$$V2.0; SMILES CCCCCCCC(=O)N1CCC[C@H]1C(=O)N[C@@H](CCCCN)C(=O)N[C@@H](Cc1ccc(O)cc1)C(=O)N[C@@H](CCCCN)C(=O)N[C@H](C(=O)N[C@H](CCSC)C(N)=O)C(C)C) [peptide of SEQ ID NO 141]
< 0.01 µM	> 10 µM	IKYKVM (HELM PEPTIDE1{[ac].I.K.Y.K.V.[dM].[am]}$$$$V2.0; SMILES CC[C@H](C)[C@H](NC(C)=O)C(=O)N[C@@H](CCCCN)C(=O)N[C@@H](Cc1ccc(O)cc1)C(=O)N[C@@H](CCCCN)C(=O)N[C@H](C(=O)N[C@H](CCSC)C(N)=O)C(C)C) [peptide of SEQ ID NO 135]
< 0.01 µM	> 10 µM	MKYWYM (HELM PEPTIDE1{M.K.Y.W.Y.[dM].[am]}$$$$V2.0; N-terminus assumed; SMILES CSCC[C@H](N)C(=O)N[C@@H](CCCCN)C(=O)N[C@@H](Cc1ccc(O)cc1)C(=O)N[C@@H](Cc1c[nH]c2ccccc12)C(=O)N[C@@H](Cc1ccc(O)cc1)C(=O)N[C@H](CCSC)C(N)=O) [peptide of SEQ ID NO 89]
< 0.01 µM	> 10 µM	IKFKPM (HELM PEPTIDE1{I.K.F.K.P.[dM].[am]}$$$$V2.0; N-terminus assumed; SMILES CC[C@H](C)[C@H](N)C(=O)N[C@@H](CCCCN)C(=O)N[C@@H](Cc1ccccc1)C(=O)N[C@@H](CCCCN)C(=O)N1CCC[C@H]1C(=O)N[C@H](CCSC)C(N)=O) [peptide of SEQ ID NO 133]
